Assay results published in a protein production outcome set (Wang et al. 2014).

Test: label from the status in PepcDB records

| Sequence | protein production |
| --- | --- |
| MSLSFTPLHTTSEAFIEKALPWLEDRYFHIAYLNPNGYTAYPQGAFRHYLAFGSEAAIHVSDATRVFETWNEIKKGYTNEWIFVFASYDGKNSVEQLHTSKEAGIAFAAATFFIPEHVWEIQPDGILIHKGSGSSLVTEIQHAEPSTPVQQSDIFVKQVVSKESYFNAFDELQQIIAQGDAYEINYCIPFTAKGNISPAATYQRLNKKTPMPFSVYYKFNTEYILSASPERFIKKTGDTIISQPIKGTSKRGKSKAEDEMLKQQLGTSEKEQSENTMIVDLVRNDLSRTAVAGSVCVPELSGLYTFPNVHQLISTVQSTIDPACSSIDVIQQAFPMGSMTGAPKVNVMKFIDRIESMARGPFSGTVGYMDPHDNFDFNVLIRSIFYNSATQELFMEAGSAITSYAKAETEYEECLLKITPMIHILNNQEGHHHHHH | not failed |
| MSLSGTDIHTSDYYFLFEEKFRGSRELVKARLRRYIPYFKGCRRVLDIGCGRGEFLELCKEEGIESIGVDINEDMIKFCEGKFNVVKSDAIEYLKSLPDKYLDGVMISHFVEHLDPERLFELLSLCYSKMKYSSYIVIESPNPTSLYSLINFYIDPTHKKPVHPETLKFILEYLGFRDVKIEFFEECEELTKLAKIDSNTVSEEVIRVINENIEKLNRILFGPQDYAIIAKKEGHHHHHH | not failed |
| MSLSIVSYYGSQQSKCGYCAGANCSLSHGMHAYQLDCRDYQDLIDRGWRRCGYYCYKLRNQETCCPCYTIKCNGLEFKLSKSNKRILRRINRFLRDGKRESKPEAGDGDGEADADYAIVAPEVTASEPQPQLPDKSPPVINVEQVASLATAQRKPTKQATAAAVEAPTLGSNKSSLLSSSAAAPISNKPCKKAKQMRLDRRLAKLGDSASYSTKSLTQEKTLRDFLNTDSETNKHRLKLRLIHVYDDEFRRTLPQSFALYKKYQISIHNDPPKDQDAYKEHLQATPLQNEKPWDGPEMGYGSFHQQYWLDDKLIAVGVIDILPGCVSSVYFFYDPDYSFLSLGTYGSLREIELVQSLAEKVPSLKYYYMGFYIHSCPKMRYKGKLSPSYLLCPETYEWLPLTDVIRAKLDEHKYQRLNEDPAARDVNEFLMEHLDEVKLLLGGRTRTDYKHFRQLRGTVSDDDIIIEYSKLVGKECARRMLYVK | failed |
| MSLSKDNIWKLLAPLVVMGVMLLIPVPDGMPPQAWHYFAVFVAMIVGMILEPIPATAISFIAVTICVIGSNYLLFDASELADPAFKASKQALKWGLAGFSSTTVWLVFGAFIFALGYEVTGLGRRIALFLVKFMGKRTLTLGYAIVIIDILLAPFTPSNTARTGGTVFPVIKNLPPLFKSFPNDPSARRIGGYLMWMMVISTSLSSSMFVTGAAPNVLGLEFVSKIAGVQISWLQWFLSFLPVGIILLIVAPWLSYVLYKPEVTHSAEVAAWAGGELKNMGRLSRKEWTLIGLVLLSLGLWVFGGKIINATAVGLLAVSLMLALHVVPWKDITRYNSAWNTLVNLATLVVMANGLTRSGFIDWFANTMSTHLEGFSPDATVIVLVLVLVLVLVLVLVLVLVLVLVLVLVLVFYFAHYLFASLSAHTATMLPVILAVGKGIPGVPMEQLCILLVLSIGIMGCLTPYATGPGVIIYGCGYVKSRDYWRLGAIFGVIYIAMLLLVGWPILAMWN | failed |
| MSLSLLLQQHLSQPWRFLDHTSFGPTFQALQSFAYDDTLCTSIGKSQSPPTLRAWVHHNTVVLGIQDSRLPQIKAGIEALKGFQHDVIVRNSGGLAVVLDSGILNLSLVLKEEKGFSIDDGYELMYELICSMFQDHREQIEAREIVGSYCPGSYDLSIDGKKFAGISQRRIRGGVAVQIYLCVSGSGAERAKMIRTFYDKAVAGQPTKFVYPRIKPETMASLSELLGQPHNVSDVLLKALMTLQQHGASLLTESLSADEWLLYEQHFARISERNEKLLAEEGHHHHHH | not failed |
| MSLSLLVIGSLAFDDIETPFGRSDNTLGGSSTYIALSASYFTDEPIRMVGVVGSDFGKEHFDLLHAKNIDTRGIQVIEDGKTFRWAGRYHYDMNTRDTLDTQLNVFAEFDPHVPQYYRDSKFVCLGNIDPELQLKVLDQIDDPKLVVCDTMNFWIEGKPEELKKVLARVDVFIVNDSEARLLSGDPNLVKTARIIREMGPKTLIIKKGEHGALLFTDNGIFAAPAFPLESIYDPTGAGDTFAGGFIGHLARCGNTSEAEMRKAVLYGSAMASFCVEQFGPYRYNDLDLLEVDDRYQSFLELSRIEEGHHHHHH | not failed |
| MSLSLYDSAHSLDGKSGWDTPVFSMKDSMDRNPMVTEAWEALCQSQVYFRGKPVGTIAAYDHASEEVLNYDQVFVRDFVPSALAFLMNGEPEIVKNFLLKTLHIQGQDKMIDKFKLGDGAMPASFKVLHNPIKKTDTIIADFGESAIGRVAPVDSGFWWIILLRAYTKSTGDHSLAERPECQKGMRLILSLCLSEGFDTFPTLLCADGCSMVDRRMGIYGYPIEIQALFFMALRSALSMLKHDSEGKEFMEKIVKRLHALSFHMRSYFWLDFQQLNDIYRYKTEEYSHTAVNKFNVIPDSIPDWIFDFMPLRGGYFVGNVSPARMDFRWFALGNCIAILSSLATPEQSMAIMDLIEARWEELVGEMPLKICYPAMESHEWGIVTGCDPKNTRWSYHNGGSWPVLLWLLTAASIKTGRPQIARRAIELAEARLLKDGWPEYYDGKSGRFIGKQARKSQTWSIAGYLVAKMMMDDPTHVGMISMEEEKHMKPPLRRSSSWT | failed |
| MSLSMPVPEGADAAAKEMALSDMIPYTVHYDDESVITKDDGLVQVIKLDGLYFESLTAEQIKQFERRRNTVLRSIANSDRGVYVHLIRRKVNLYPAGEGGTWFARRFNQAWRERYNKRSFYVNEIYISIVRNRFRQGAPGILDRAFSLVSGSKITKEDLESFEEQAKDVNEAANLVVQTLSGYGARKLRIQRRPEFVLDRVSRADAQVAVERFKMSWQEFQRSHGHHEVYSRDEVLDYLGEDFSEIGGFLHYLVNLEDERVPVTEMQLDRTLAVSYLDFKMLSNMMAVQNLSGTRAGAMLSMAEWPARTPSRMLDEFLKQPVEYIITQSFFFTDRISAEHDMRQERRRIAVNDREGVAEEDKDEITKGLQDLTRGRSVNGLHHLTMLVHVPATTQFADPIENKRQTIADLDGAVGLLKKAFVNLGVKPVREWFAMETFFWAQLPGQAQHFMGRRGKIKSGNFAGFASLHNFAVGKIDGNLWGPAIMPFETESGTAYYFSFHREMEGMVAGHTAFTADTGAGKTTLLAALIAMGDKAYPRVFWFDNREGAKVFMCAMGGQHTTLTVQGSTGWNPMKLPDTPENRAYLVELLTLMRTCYGGKIVPDDIDRFKKAVHENYALAYPDRRLLNVAWCFGQGELAKDMRVWHGANGIEGANWGVFDNEHDNIDLTNCRHYCYEMRQLIKDGTARPELPVVLSYPFHRIEQSMNGEPFILVLEEGQNLVKHAYWREKIDSYIMQIRRKNGLLVFVTPDAKYLYCETDSIQKQTATKIYLPNGEAKRTDLVDVLGLTPAEYEFVRDTPPENRTFLIRRGNESIKAKFDLSDMPEFIPVLSSNDKGVALMEEIIRELETDDPEQWVPVFMERALAKNTHNLKQKGA | failed |
| MSLSNTPIELKGSSFTLSVVHLHEAEPEVIRQALEDKIAQAPAFLKHAPVVINVSGLESPVNWPELHKIVTSTGLRIIGVSGCKDASLKVEIDRMGLPLLTEGKEKAVRPAPEGHHHHHH | not failed |
| MSLSSKLRLQLDAHASIHENVRRLLQFTTSIMEANEEGIRKDIDSEFLHDFRVAIRRSRSILRLLNGVFDPEKTAWMLAGLRELGKRTNDLRDSDVYLLRREEYTSLLPPSLRPALDPFFSDLEADKRLHHRQFCRYLTGREYSGFMTSLKEFIAEGELPDPETAPLAAEPTGDVAAKTIRKALKKVLVHGRRTGSETSDAELHELRIDCKKLRYLLEFFASLFPPKATAQVLRQMKTLQDNLGTFVDLTVQMEFLQSRLETIPADRGGISEAAAIGGLLTTLYRKREKVREHFHEIFSGFDSNETGELFDELLTGLAEGHHHHHH | not failed |
| MSLSVAIIGPGAVGTTIAYELQQSLPHTTLIGRHAKTITYYTVPHAPAQDIVVKGYEDVTNTFDVIIIAVKTHQLDAVIPHLTYLAHEDTLIILAQNGYGQLEHIPFKNVCQAVVYISGQKKGDVVTHFRDYQLRIQDNALTRQFRDLVQDSQIDIVLEANIQQAIWYKLLVNLGINSITALGRQTVAIMHNPEIRILCRQLLLDGCRVAQAEGLNFSEQTVDTIMTIYQGYPDEMGTSMYYDIVHQQPLEVEAIQGFIYRRAREHNLDTPYLDTIYSFLRAYQQNEGHHHHHH | not failed |
| MSLSVKILFKNATVFPITSRPFKGDVLVSNGKVEKVGENIEDPDAEIVDLTGKFLFPGFVDAHSHIGLFEEGVGYYYSDGNEATDPVTPHVKALDGFNPQDPAIERALAGGVTSVMIVPGSANPVGGQGSVIKFRSIIVEECIVKDPAGLKMAFGENPKRVYGERKQTPSTRMGTAGVIRDYFTKVKNYMKKKELAQKEGKEFTETDLKMEVGEMVLRKKIPARMHAHRADDILTAIRIAEEFGFNLVIEHGTEAYKISKVLAEKKIPVVVGPLLTFRTKLELKDLTMETIAKLLKDGVLIALMCDHPVIPLEFATVQAATAMRYGAKEEDLLKILTVNPAKILGLEDRIGSIEPGKDADLVVWSGHPFDMKSVVERVYIDGVEVFRREGHHHHHH | not failed |
| MSLSYRIDVLLFNKFETLDVFGPVEIFGNLQDDFELNFISSDGGLVESSQKVRVETSLYTRDENIEKILFVPGGSGTREKVNDDNFINFIGNMVKESKYIISVCTGSALLSKAGILNGKRATTNKRSFKWVTEQNEDVLWVKEARWVKDGNIYTSSGVSAGIDMTLGFIEDLIGKEKALEISRSIEYFWNEDSNYDPFSKIYGEGHHHHHH | not failed |
| MSLTASDDLPGVLIVEDGRLAAATLRIQLESLGYDVLGVFDNGEEAVRCAPDLRPDIALVDIMLCGALDGVETAARLAAGCNLPIIFITSSQDVETFQRAKRVNPFGYLAKPVAADTLHRSIEMAIHKKKLEEGHHHHHH | not failed |
| MSLTLDELDSHLFKCADIIRDAVDPTDYKEYILPLVFYKAISDEYEQEREEIVEEYGEDFADNANLYDVPIVPEGHRWNDLRQESENVDEAINNAFTEFTQANPDLSGIFNANFMEAGGLTDDRLIKLVEHLSTYDLDRDSVPPDMLGEAYMDLVRHFAEEEGKSGGQFFTPPHIVQLCVRLVDDFADGMTFHDPTVGSGGMLTEAAKYYREAQGGDPSKLTFTGQEINPDIAAIARMNLSLHTLNGEIERGDSLASPGFTDGDDLERFDRVLANFPFSADWAKDDLQDDQYGRFDWHTKLPRADRGDYAFIMHIAEQLKEPDCGDESGGKAAIVIPHGVLFRKHEQRYRQPMLENDLVEAIVGLPENLFQNNSIPSAILVLNTDKPADREGEVQFIHAADEAFYEELSNQNELTDDGLDHIVENFDDWTTEERVSRTVGIEEIEENDFNLNIALYVDTTEPEEDIDVNEELAELRELQAEREEIESRMTEHMEALQYE | failed |
| MSLTQAQGAQQYVNINPPMPSDTPGKIEVLEFFAYTCPHCAAIEPMVEDWAKTAPQDVVLKQVPIAFNAGMKPLQQLYYTLQALERPDLHPKVFTAIHTERKRLFDKKAMGEWAASQGVDRAKFDSVFDSFSVQTQVQRASQLAEAAHIDGTPAFAVGGRYMTSPVLAGNDYAGALKVVDQLIVQSREGHHHHHH | not failed |
| MSLTQIVNPIIYPSRTIPRRFTAISPFKTLSPQFSRHPPHALSRRLFLPSVSSIWDAITGGGDSNPREAIAAVRRGMQLFRQGDVAGSVAEFDRAIILDPRQKAYLWQRGLSLYYVDRFEEGAEQFRIDVAQNPNDTEESIWCFICEARLHGVDVARTQFLEVGRDSRPVMREAYNLFKNGGDPEKLVNDFSSGQASEYFYASLYAGLYYEAEGKSENAKFHLTAACGSPYGQRSDDYMASLAKVHCLCRNWSSGIL | failed |
